# Reference: patent US20230212267A1
# Target: SARS-CoV-2 Spike protein on pseudovirus (wild type) (SARS-CoV-2) (UniProt P0DTC2)
# Assay: cell-based or functional assay
substance,measurement,value
ACE2-Ig (positive control of the pseudovirus neutralization assay) (Fc fusion),"IC50, pseudovirus neutralization",0.9 µg/mL
